For 1 protein, unfolding free energy results are on record in FireProtDB (doi:10.1002/pro.5560010205).

For this data set the following is noted: Mus musculus; pH 4; 23 °C; GdnHCl; Fluorescence; sodium phosphate 100 mM; reversible: yes; whole UniProt chain shown.

B1: Beta-nerve growth factor wild type, P01139 (protein)
chain: MSMLFYTLITAFLIGVQAEPYTDSNVPEGDSVPEAHWTKLQHSLDTALRRARSAPTAPIAARVTGQTRNITVDPRLFKKRRLHSPRVLFSTQPPPTSSDTLDLDFQAHGTIPFNRTHRSKRSSTHPVFHMGEFSVCDSVSVWVGDKTTATDIKGKEVTVLAEVNINNSVFRQYFFETKCRASNPVESGCRGIDSKHWNSYCTTTHTFVKALTTDEKQAAWRFIRIDTACVCVLSRKATRRG
Take B1: the unfolding free energy is 14.5 kcal/mol.
